Experimental data from patent publication US20240002497A1 (Merck Sharp & Dohme, published 2024).
Like-named read-outs stand apart in the source and are kept apart here.

Tests used:
[1] = target: T1, huNav1.7α + β1 (human); assay: binding FACS, HEK
T1 construct: HEK293 cells; also called huNav1.7-beta1; huNav1.7-β1

[2] = target: T2, huNav1.7α (human, UniProt Q15858 1-1988); assay: binding FACS, HEK
T2 construct: HEK cells expressing the α subunit without β subunits; also called huNav1.7 (alpha-subunit); Human Nav1.7α

[3] = target: T3, huNav1.7α + β1-β2-β3 (human, UniProt Q15858 1-1988; A5A6L6 19-218; O60939 30-215; Q2KI11 23-215); assay: competition FACS vs EC25 of F103275B05(N93R), CHO FlpIn
T3 construct: also called huNav1.7-beta1-beta2-beta3; huNav1.7-β1-β2-β3

[4] = target: T4, rhNav1.7α + β1-β2-β3 (rhesus monkey); assay: competition FACS vs EC40 of F103275B05(N93R), CHO FlpIn
T4 construct: also called rhNav1.7-beta1-beta2-beta3; rhNav1.7-β1-β2-β3

[5] = target: T3, huNav1.7α + β1-β2-β3; assay: competition FACS vs EC25 of F103275B05(N93R), HEK FlpIn
[6] = target: T1, huNav1.7α + β1; assay: competition FACS vs EC25 of F103275B05(N93R), HEK
[7] = target: T2, huNav1.7α; assay: competition FACS vs EC25 of F103275B05(N93R), HEK
[8] = target: T5, huNav1.7α + β1-β2-β3 (human, UniProt Q15858 1-1988; A5A6L6 19-218; O60939 30-215; Q2KI11 23-215); assay: competition FACS, HEK FlpIn cells, vs EC30 of CMYC3-F0103265B04
T5 construct: Cell line (CHO FlpIn, HEK FlpIn, transient HEK293T) is named under assay; also called huNav1.7-beta1-beta2-beta3; human Nav1.7α with Navβ1, Navβ2 and Navβ3
Method: Competition FACS assays were performed with CMYC3-tagged ISVD F0103265B04 or F0103275B05(N93R) affinity maturation variant on a HEK FlpIn huNav1.7α+β1−β2−β3 transgenic cell line. Briefly, cells were resuspended in FACS buffer (PBS, 2% FBS, 0.05% NaN₃) and 1×10⁵ cells/well were transferred to 96-well V-bottom plates. Cells were subsequently resuspended in a 100 μL mixture of purified ISVD (dilution series) and CMYC3-tagged ISVD F0103265B04 (at a concentration equivalent to EC30) followed by incubation for 1.5 hours at 4° C. […] Between each step, the cells were centrifuged for 5 minutes at 200 g and washed with 100 μL/well FACS buffer. Prior to the read-out, the samples were resuspended in 5 nM TOPRO3 (Molecular probes, catalog #T3605) to exclude dead cells. F0103262CO2, F0103262B06, F0103265A11, F0103265B04, F0103275B05, F0103362B08, and F0103387G04 all compete with F0103265B04 for binding to huNav1.7α, in contrast to an irrelevant control ISVD (IRR) (see Table 21 and FIG. 15A, FIG. 15B, FIG. 15C, and FIG. 15D).

[9] = target: T6, huNav1.7α (HEKa) (human, UniProt Q15858 1-1988); assay: binding FACS, HEKa cells
T6 construct: also called HEKa huNav1.7α
Procedure, shortened: (§1)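 FLAG3-tagged ISVD, 30 min, 4° C, FACS buffer (PBS/10% FBS/NaN₃); 1×10^5 cells/well; detection murine anti-Flag; PI 1 μg/mL live gate; washes between steps.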

[10] = target: T7, huNav1.7α(V331M) + β1-β2-β3 (human); assay: binding FACS, CHO FlpIn cells
T7 construct: polyprotein as encoded; the entry already carries V331M; also called huNav1.7(V331M)-beta1-beta2-beta3
Method: (§2) Binding of the ISVDs to cell-expressed Nav1.7α was detected via murine anti-Flag (Sigma, catalog #F1804). Briefly, cells were resuspended in FACS buffer (PBS, 10% FBS, NaN₃) and transferred to a 96-well V-bottom plate at 1×10^5 cells/well. Purified FLAG3-tagged ISVD was diluted in FACS buffer and added to the cells for 30 minutes at 4° C. […] Prior to the read-out, the samples were resuspended in 1 μg/mL propidium iodide (Sigma, catalog #P4170) to exclude dead cells. Between each step, the cells were centrifuged for 5 minutes at 200 grams and washed with 100 μL/well FACS buffer.
(§3) Based on the huNav1.7α model (as described above) the following huNav1.7α-rhNav1.7α polymorphisms can be allocated to the extracellular part of DI: N146S, F276V, R277Q, E281V and V331M. The first of the residues is in DI S1-S2 whereas the latter four residues belong to DI S5-S6. FACS binding studies (as described above) were performed to stable CHO FlpIn cell lines expressing different variants of huNav1.7+β1−β2−β3 each including one of the four possible extracellular huNav1.7α-rhNav1.7α polymorphisms in the DI S5-S6 region: F276V, R277Q, E281V and V331M (Table 23 and FIGS. 22A-22F). Individual polymorphisms were each sufficient to abolish the binding of F0103265B04, F0103362B08, F010301080, and F0103262B06 to huNav1.7α, recapitulating the absence of binding on rhNav1.7α. F0103262CO2, F0103275B05 and F0103387G05 are more subtly affected in terms of EC50 or Bmax by some of the polymorphisms. None of the individual DI S5-S6 polymorphisms by themselves appear to have an impact on the binding of the two rhNav1.7α cross-reactive ISVDs F0103387G04 and F0103464B09. In addition, no effect on binding of the two ISVDs was observed (data not shown) for the three extracellular DIV VSD huNav1.7α-rhNav1.7α polymorphisms Q1530P, H1531Y and E1534D (FIG. 22G).

[11] = target: T8, huNav1.7α(E281V) + β1-β2-β3 (human); assay: binding FACS, CHO FlpIn cells
T8 construct: polyprotein as encoded; the entry already carries E281V; also called huNav1.7(E281V)-beta1-beta2-beta3
Method: as §2, §3

[12] = target: T9, rhNav1.7α + β1-β2-β3 (rhesus monkey); assay: binding FACS, CHO FlpIn cells
T9 construct: also called rhNav1.7-beta1-beta2-beta3; rhesus Nav1.7α
Method: as §2, §3

[13] = target: T5, huNav1.7α + β1-β2-β3; assay: binding FACS, CHO FlpIn cells
Method: as §2, §3

[14] = target: T10, huNav1.7α(R277Q) + β1-β2-β3 (human); assay: binding FACS, CHO FlpIn cells
T10 construct: polyprotein as encoded; the entry already carries R277Q; also called huNav1.7(R277Q)-beta1-beta2-beta3
Method: as §2, §3

[15] = target: T11, huNav1.7α(F276V) + β1-β2-β3 (human, UniProt Q15858 1-1988; A5A6L6 19-218; O60939 30-215; Q2KI11 23-215); assay: binding FACS, CHO FlpIn cells
T11 construct: polyprotein as encoded, P2A sites liberate the subunits; the entry already carries F276V; also called huNav1.7(F276V)-beta1-beta2-beta3
Method: as §2, §3

[16] = target: T5, huNav1.7α + β1-β2-β3; assay: binding FACS, CHO FlpIn cells; remark: listed apart in the source
Procedure, shortened: as §1

[17] = target: T12, huNav1.7α + β1 (HEKa/β1) (human, UniProt Q15858 1-1988; Q07699 19-218); assay: binding FACS, HEKa/β1 cells
T12 construct: also called HEKa/β1 huNav1.7α
Procedure, shortened: as §1

[18] = target: huNav1.7α + β1 on HEK cells (human, UniProt Q15858 1-1988; Q07699 19-218); assay: binding FACS, HEK cells (HEKa/b1)
[19] = target: T13, huNav157 chimera 14 on cells (without β subunits) (human (huNav1.7α/huNav1.5α chimera)); assay: binding FACS, HEK FlpIn cells
T13 construct: also called HEK FlpIn Nav157ch14

[20] = target: T14, huNav157 chimera 14 + β1-β2-β3 on cells (human (huNav1.7α/huNav1.5α chimera)); assay: binding FACS, HEK FlpIn cells
T14 construct: Extracellular loops and transmembrane helices of Nav1.7α, intracellular loops of Nav1.5α; P2A linkers are cleaved co-translationally; also called HEK FlpIn Nav157ch14-β1-β2-β3; huNav157 chimera 14-beta1-beta2-beta3

[21] = target: T15, huNav1.7α on HEK cells (without β subunits) (human, UniProt Q15858 1-1988); assay: binding FACS, HEK cells (HEKa)
T15 construct: also called HEKa huNav1.7α

B1: F0103275B05-FLAG3 + HIS6 (VHH)
VHH: EVQLVESGGGLVQPGGSLRLSCAASGSIFNINSMAWYRRAPGKQRELVASSTNGGSTNYADSVKGRFTISRDNAKRVYLQMNSLTPEDTAVYYCNALLQPSIYDISRTYWGQGTLVTVSS
notes: also called F0103275B05 (parental)-FLAG-HIS6
In the case of B1, the EC50 [1] is reported as 13 nM and the EC50 [2] is reported as 13 nM.

B2: F010302380 (bispecific antibody)
chain: DVQLVESGGGLVQPGGSLRLSCAASGSIFNINSMAWYRRAPGKQRELVASSTNGGSTNYADSVKGRFTISRDNAKRVYLQMNSLTPEDTAVYYCRALLQPSIYDISRTYWGQGTLVTVSSGGGGSGGGGSGGGGSGGGGSGGGGSGGGGSGGGGSGGGGSGGGGSGGGGSEVQLVESGGGLVQAGGSLRLSCVTSGRTSDLSTMNWFRQAPGKEREFVARITRRGSTYYAESVKERFIISRDNAKNTVYLQMNSLKPEDTANYYCTAASEMGYHYRGQGTQVTVSSGAADYKDHDGDYKDHDIDYKDDDDKGAAHHHHHH
notes: also called F0103275B05(E1D, N93R)-50GS-F0103505D08(L108Q)-FLAG3-HIS6
B2 showed an IC50 [3] of 8.1 nM, an IC50 [4] of 2 nM and an IC50 [5] of 8.7 nM. The IC50 [6] was 110 nM and the IC50 [7] was 67 nM.

B3: F0103362B08 (VHH)
VHH: EVQLVESGGGLVQAGGSLRLSCAASVRPFSTSAMGWFRQAPEKEREAVAGILWNGIVTYYADSVKGRFTISRDNAKNEVYLQMNKLKPEDTAVYYCALDRDYGGRSFSAYEYEYWGQGTLVTVSS
notes: entry includes the FLAG-HIS6 tag; also called F0103362B08 (parental)-FLAG-HIS6
B3 was tested, and the IC50 [8] was 150 nM, the EC50 [9] was 19 nM and the binding result [10] was “no binding”. The EC50 [11] was 34 nM, the binding result [12] was “no binding” and the EC50 [13] was 43 nM. For the same binder, the EC50 [14] was 34 nM, the EC50 [15] was 42 nM and the EC50 [16] was 110 nM. The EC50 [17] was 34 nM.

B4: F010301080 (VHH)
VHH: EVQLVESGGGLVQPGGSLRLSCAASGMLFNANTQGWYRQAPGKQRELVAFIFWGGYVTYNDSVKGRFTISRDNAKRTMYLQMNSLKPEDSAIYYCSLSRYLGQGTLVTVSS
With B4 the binding result [10] was “no binding”, the EC50 [11] was 2.5 nM and the binding result [12] was “no binding”. For the same binder, the EC50 [13] was 3.4 nM, the EC50 [14] was 3.2 nM and the EC50 [15] was 2.6 nM.

B5: F010301635 (VHH)
VHH: EVQLVESGGGVVQPGGSLRLSCAASGSIFNINSMAWYRQAPGKQRELVASSTNGGSTNYADSVKGRFTISRDNAKRVYLQMNSLRPEDTALYYCNALLQPSIYDISRTYWGQGTLVTVSS
notes: also called F0103275B05(L11V, R39Q, T83R, V89L)
With B5 the EC50 [18] was 31 nM, the EC50 [19] was 16 nM and the EC50 [20] was 35 nM. For the same binder, the EC50 [21] was 19 nM.

B6: F010301636 (VHH)
VHH: EVQLVESGGGVVQPGGSLRLSCAASGSIFNINSMAWYRRAPGKQRELVASSTNGGSTNYADSVKGRFTISRDNAKNVYLQMNSLRPEDTALYYCNALLQPSIYDISRTYWGQGTLVTVSS
notes: also called F0103275B05(L11V, R76N, T83R, V89L)
B6 gave an EC50 [18] of 30 nM, an EC50 [19] of 14 nM and an EC50 [20] of 45 nM. The EC50 [21] was 17 nM.

B7: F010301638 (VHH)
VHH: EVQLVESGGGVVQPGGSLRLSCAASGSIFNINSMAWYRQAPGKQRELVASSTNGGSTNYADSVKGRFTISRDNAKNVYLQMNSLRPEDTALYYCNALLQPSIYDISRTYWGQGTLVTVSS
notes: also called F0103275B05(L11V, R39Q, R76N, T83R, V89L)
B7 was tested, and the EC50 [18] was 32 nM, the EC50 [19] was 18 nM and the EC50 [20] was 50 nM. The EC50 [21] was 23 nM.

B8: F010301641 (VHH)
VHH: EVQLVESGGGVVQPGGSLRLSCAASGSIFNINSMAWYRRAPGKQRELVASSTNGGSTNYADSVKGRFTISRDNAKNTVYLQMNSLRPEDTALYYCNALLQPSIYDISRTYWGQGTLVTVSS
notes: also called F0103275B05(R76_V78insT)(L11V, R76N, T83R, V89L)
In the case of B8, the EC50 [18] is reported as 230 nM, the EC50 [19] is reported as 310 nM and the EC50 [20] is reported as 350 nM. The EC50 [21] was 380 nM.
